This note sets out measurements from patent US20180105569A1 (INDIANA UNIVERSITY RESEARCH AND TECHNOLOGY, published 2018).

Holding throughout (test): cell-based or functional assay
Experiment [1] addresses T1, GIP receptor (UniProt P48546 22-466, limits assumed).
T1 sequence (looked up): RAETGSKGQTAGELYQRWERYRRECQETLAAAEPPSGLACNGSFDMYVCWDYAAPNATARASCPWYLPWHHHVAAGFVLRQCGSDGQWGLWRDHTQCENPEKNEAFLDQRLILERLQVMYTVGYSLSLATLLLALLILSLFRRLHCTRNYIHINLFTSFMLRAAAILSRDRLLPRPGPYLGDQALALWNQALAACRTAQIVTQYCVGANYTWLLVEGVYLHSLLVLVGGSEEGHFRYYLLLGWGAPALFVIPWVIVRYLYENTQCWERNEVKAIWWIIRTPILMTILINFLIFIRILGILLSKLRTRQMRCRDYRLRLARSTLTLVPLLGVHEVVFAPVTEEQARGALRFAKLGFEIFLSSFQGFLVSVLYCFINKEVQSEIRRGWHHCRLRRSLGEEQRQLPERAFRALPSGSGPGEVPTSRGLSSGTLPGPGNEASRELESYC

A further experiment addresses GLP-1 receptor (UniProt P43220 24-463, limits assumed).
The target in experiment [2] is T2, glucagon receptor (UniProt P47871 26-477, limits assumed).
Experiment [3] deals with T1, GIP receptor. The source holds these as a separate data set.
The target in experiment [4] is T2, glucagon receptor. This is another data set of the same source.

For orientation: EC50 means the concentration needed to bring the measured effect to its halfway point. Read a high EC50 as a need for much substance.

Like-named read-outs stand apart in the source and are kept apart here. Numbered stars: 1 amine (or outer) side, 2 acyl side, 3 side chain; on linkers, the order of the positions; unused ones are H or OH. Square brackets hold non-standard residues; d marks the D form. Side chains are listed from the residue outwards. Ends that are not written are not given here. * marks the point of attachment. β2His = Beta2-His (beta2-homo amino acid form of His; γGlu = O=C(O)[C@H](CCC(=O)[*:2])N[*:1]; Desaminohistidyl = O=C(CCc1c[nH]cn1)*; Desaminotyrosyl = O=C(CCc1ccc(O)cc1)*; Palmitoyl = CCCCCCCCCCCCCCCC(=O)*; dthioAla = not defined here; thioAla = not defined here; Orn = NCCC[C@H](N)C(=O)O; Aib = CC(C)(N)C(=O)O; Sar = CNCC(=O)O

T2 sequence (P47871 26-477 limits assumed): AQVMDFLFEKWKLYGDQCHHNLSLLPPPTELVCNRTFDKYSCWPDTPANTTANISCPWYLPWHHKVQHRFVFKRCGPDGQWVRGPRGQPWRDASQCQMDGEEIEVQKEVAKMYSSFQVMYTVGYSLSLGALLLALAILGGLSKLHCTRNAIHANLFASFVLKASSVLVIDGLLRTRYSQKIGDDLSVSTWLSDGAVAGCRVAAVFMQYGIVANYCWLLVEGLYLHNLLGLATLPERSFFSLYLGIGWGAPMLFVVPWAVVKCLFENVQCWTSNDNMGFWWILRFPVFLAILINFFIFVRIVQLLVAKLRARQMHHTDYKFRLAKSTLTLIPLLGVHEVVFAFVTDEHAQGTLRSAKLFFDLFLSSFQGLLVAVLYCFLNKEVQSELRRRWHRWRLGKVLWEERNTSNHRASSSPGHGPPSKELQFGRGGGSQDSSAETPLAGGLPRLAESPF

Turning to Ac-[dthioAla]AQGTFTSDK([γGlu-Palmitoyl])SKYLDERAAQDFVQWLLEGGPSSGAPPPS-NH2 (reading uncertain) [peptide of SEQ ID NO: 17], in the experiment with GIP receptor [1], a half-maximal effect (EC50 at GIP Receptor (cAMP luciferase reporter, HEK293)) was put at 0.011 nM. In addition, in the experiment with GLP-1 receptor, the 50% effective concentration (EC50) at GLP-1 Receptor (cAMP luciferase reporter, HEK293) came out at 0.005 nM. Further, a half-maximal response with glucagon receptor [2] (EC50 at Glucagon Receptor (cAMP luciferase reporter, HEK293)) required 0.008 nM.
In the same order, the values of [β2His]AQGTFTSDK([γGlu-Palmitoyl])SKYLDERAAQDFVQWLLEGGPSSGAPPPS-NH2 [peptide of SEQ ID NO: 25] are 0.064 nM, 0.003 nM and 0.024 nM.
For Ac-[dY]AQGTFTSDK([γGlu-Palmitoyl])SKYLDERAAQDFVQWLLEGGPSSGAPPPS-NH2 [peptide of SEQ ID NO: 12], in that order: 0.002 nM, 0.003 nM and 0.007 nM.
In the same order, the values of Ac-[thioAla]AQGTFTSDK([γGlu-Palmitoyl])SKYLDERAAQDFVQWLLEGGPSSGAPPPS-NH2 (reading uncertain) [peptide of SEQ ID NO: 21] are 0.04 nM, 0.026 nM and 0.006 nM.
As to Ac-YAQGTFTSDK([γGlu-Palmitoyl])SKYLDERAAQDFVQWLLEGGPSSGAPPPS-NH2 [peptide of SEQ ID NO: 155], the midpoint of the response in the experiment with GIP receptor [3], the EC50 at GIP Receptor (cAMP luciferase reporter, HEK293), lay at 0.037 nM.
For the molecule Ac-QGQGTFTSDK([γGlu-Palmitoyl])SKYLDERAAQDFVQWLLEGGPSSGAPPPS-NH2 [peptide of SEQ ID NO: 34], in the experiment with GIP receptor [1], the “EC50 at GIP Receptor (cAMP luciferase reporter, HEK293)” value (“EC50 at GIP Receptor” for short) was determined as 0.436 nM. A half-maximal effect with GLP-1 receptor (EC50 at GLP-1 Receptor (cAMP luciferase reporter, HEK293)) was put at 0.611 nM. In the experiment with glucagon receptor [2], it took 0.163 nM to reach a half-maximal effect (EC50 at Glucagon Receptor (cAMP luciferase reporter, HEK293)).
Regarding Ac-[dY]GQGTFTSDK([γGlu-Palmitoyl])SKYLDERAAQDFVQWLLEGGPSSGAPPPS-NH2 [peptide of SEQ ID NO: 14], the response in the experiment with GIP receptor [1] was half-maximal at 0.005 nM (EC50 at GIP Receptor (cAMP luciferase reporter, HEK293)). Moreover, the response with GLP-1 receptor was half-maximal at 0.022 nM (EC50 at GLP-1 Receptor (cAMP luciferase reporter, HEK293)). In addition, in the experiment with glucagon receptor [2], the “EC50 at Glucagon Receptor (cAMP luciferase reporter, HEK293)” value (from here on “EC50 at Glucagon Receptor”) is 0.005 nM.
Take [dH]AQGTFTSDK([γGlu-Palmitoyl])SKYLDERAAQDFVQWLLEGGPSSGAPPPS-NH2 [peptide of SEQ ID NO: 16]: the midpoint of the response with GIP receptor [1], the EC50 at GIP Receptor (cAMP luciferase reporter, HEK293), lay at 0.01 nM. For the same molecule, the midpoint of the response in the experiment with GLP-1 receptor, the EC50 at GLP-1 Receptor (cAMP luciferase reporter, HEK293), lay at 0.002 nM. For the same molecule, the half-maximal effective concentration (EC50) at Glucagon Receptor (cAMP luciferase reporter, HEK293) in the experiment with glucagon receptor [2] was found to be 0.01 nM.
Consider [Desaminohistidyl]AQGTFTSDK([γGlu-Palmitoyl])SKYLDERAAQDFVQWLLEGGPSSGAPPPS-NH2 [peptide of SEQ ID NO: 22], for which, in the experiment with GIP receptor [1], the “EC50 at GIP Receptor” value came to 0.041 nM. Also, the “EC50 at GLP-1 Receptor (cAMP luciferase reporter, HEK293)” value (shortened to “EC50 at GLP-1 Receptor”) in the experiment with GLP-1 receptor is 0.003 nM. Moreover, in the experiment with glucagon receptor [2], the “EC50 at Glucagon Receptor” value worked out at 0.017 nM.
For [Desaminohistidyl]GQGTFTSDK([γGlu-Palmitoyl])SKYLDERAAQDFVQWLLEGGPSSGAPPPS-NH2 [peptide of SEQ ID NO: 31], in that order: 0.226 nM, 0.003 nM and 0.022 nM.
For H[Aib]QGTFTSDK([γGlu-Palmitoyl])SKYLDERAAQDFVQWLLEGGPSSGAPPPS-NH2 [peptide of SEQ ID NO: 37], in that order: 0.003 nM, 0.006 nM and 0.009 nM.
As to [dH]GQGTFTSDK([γGlu-Palmitoyl])SKYLDERAAQDFVQWLLEGGPSSGAPPPS-NH2 [peptide of SEQ ID NO: 23], the concentration for a half-maximal effect (EC50) at GIP Receptor (cAMP luciferase reporter, HEK293) with GIP receptor [1] was determined as 0.043 nM. In the experiment with GLP-1 receptor, the concentration giving a half-maximal response (EC50) at GLP-1 Receptor (cAMP luciferase reporter, HEK293) was 0.003 nM. Moreover, in the experiment with glucagon receptor [2], the 50% effective concentration (EC50) at Glucagon Receptor (cAMP luciferase reporter, HEK293) came out at 0.015 nM.
On to Ac-[Orn]AQGTFTSDK([γGlu-Palmitoyl])SKYLDERAAQDFVQWLLEGGPSSGAPPPS-NH2 [peptide of SEQ ID NO: 30], for which the “EC50 at GIP Receptor” value with GIP receptor [1] stood at 0.183 nM. Further, in the experiment with GLP-1 receptor, the concentration giving a half-maximal response (EC50) at GLP-1 Receptor (cAMP luciferase reporter, HEK293) came out at 0.002 nM. Further, in the experiment with glucagon receptor [2], the midpoint of the response, the EC50 at Glucagon Receptor (cAMP luciferase reporter, HEK293), lay at 0.635 nM.
For [thioAla]GQGTFTSDK([γGlu-Palmitoyl])SKYLDERAAQDFVQWLLEGGPSSGAPPPS-NH2 (reading uncertain) [peptide of SEQ ID NO: 29], in that order: 0.095 nM, 0.007 nM and 0.038 nM.
Regarding H[Sar]QGTFTSDK([γGlu-Palmitoyl])SKYLDERAAQDFVQWLLEGGPSSGAPPPS-NH2 [peptide of SEQ ID NO: 28], the midpoint of the response in the experiment with GIP receptor [1], the EC50 at GIP Receptor (cAMP luciferase reporter, HEK293), lay at 0.081 nM. For the same molecule, in the experiment with GLP-1 receptor, the “EC50 at GLP-1 Receptor” value is 0.002 nM. For the same molecule, the “EC50 at Glucagon Receptor” value with glucagon receptor [2] was determined as 0.022 nM.
In the same order, the values of Ac-[dH]AQGTFTSDK([γGlu-Palmitoyl])SKYLDERAAQDFVQWLLEGGPSSGAPPPS-NH2 [peptide of SEQ ID NO: 13] are 0.004 nM, 0.004 nM and 0.002 nM.
[dH]PQGTFTSDK([γGlu-Palmitoyl])SKYLDERAAQDFVQWLLEGGPSSGAPPPS-NH2 [peptide of SEQ ID NO: 27]: the response with GIP receptor [1] was half-maximal at 0.08 nM (EC50 at GIP Receptor (cAMP luciferase reporter, HEK293)). For the same molecule, the response in the experiment with GLP-1 receptor was half-maximal at 0.003 nM (EC50 at GLP-1 Receptor (cAMP luciferase reporter, HEK293)). Moreover, in the experiment with glucagon receptor [2], the “EC50 at Glucagon Receptor” value turned out to be 0.034 nM.
For [dY]AQGTFTSDK([γGlu-Palmitoyl])SKYLDERAAQDFVQWLLEGGPSSGAPPPS-NH2 [peptide of SEQ ID NO: 15], in that order: 0.008 nM, 0.004 nM and 0.05 nM.
For the molecule H[Aib]QGTFTSDK([γGlu-Palmitoyl])SKYLDERAAQDFVQWLLDGGPSSGAPPPS-NH2 [peptide of SEQ ID NO: 10], in the experiment with GIP receptor [1], it took 0.003 nM to reach a half-maximal effect (EC50 at GIP Receptor (cAMP luciferase reporter, HEK293)). In the experiment with GLP-1 receptor, the midpoint of the response, the EC50 at GLP-1 Receptor (cAMP luciferase reporter, HEK293), lay at 0.005 nM. Also, a half-maximal effect in the experiment with glucagon receptor [2] (EC50 at Glucagon Receptor (cAMP luciferase reporter, HEK293)) was put at 0.005 nM.
With [thioAla]PQGTFTSDK([γGlu-Palmitoyl])SKYLDERAAQDFVQWLLEGGPSSGAPPPS-NH2 (reading uncertain) [peptide of SEQ ID NO: 33], in the experiment with GIP receptor [1], the “EC50 at GIP Receptor” value is 0.43 nM. For the same molecule, in the experiment with GLP-1 receptor, the midpoint of the response, the EC50 at GLP-1 Receptor (cAMP luciferase reporter, HEK293), lay at 0.005 nM. Moreover, the response with glucagon receptor [2] was half-maximal at 0.121 nM (EC50 at Glucagon Receptor (cAMP luciferase reporter, HEK293)).
With [Desaminotyrosyl]AQGTFTSDK([γGlu-Palmitoyl])SKYLDERAAQDFVQWLLEGGPSSGAPPPS-NH2 [peptide of SEQ ID NO: 11], the “EC50 at GIP Receptor” value in the experiment with GIP receptor [1] is 0.002 nM. Also, the “EC50 at GLP-1 Receptor” value in the experiment with GLP-1 receptor was 0.002 nM. Also, a half-maximal effect with glucagon receptor [2] (EC50 at Glucagon Receptor (cAMP luciferase reporter, HEK293)) was put at 0.016 nM.
Take Ac-YA[dQ]GTFTSDK([γGlu-Palmitoyl])SKYLDERAAQDFVQWLLEGGPSSGAPPPS-NH2 [peptide of SEQ ID NO: 158]: in the experiment with GIP receptor [3], the half-maximal effective concentration (EC50) at GIP Receptor (cAMP luciferase reporter, HEK293) was found to be 0.069 nM. In other words, the picomolar range.

B1: peptide of SEQ ID NO: 26 (peptide)
peptide: XAQGTFTSDKSKYLDERAAQDFVQWLLEGGPSSGAPPPS
modifications: position 1 His; position 2 β-Ala; C-terminal amide; other non-coded or acylated residues as in the sequence listing
Consider B1, for which the “EC50 at GIP Receptor” value with GIP receptor [1] came out at 0.071 nM. The “EC50 at GLP-1 Receptor” value in the experiment with GLP-1 receptor turned out to be 0.002 nM. In addition, the 50% effective concentration (EC50) at Glucagon Receptor (cAMP luciferase reporter, HEK293) with glucagon receptor [2] amounted to 0.095 nM.

B2: peptide of SEQ ID NO: 145 (peptide)
peptide: XAEGTFTSDKSKYLDERAAQDFVQWLLEGGPSSGAPPPS
modifications: position 1 Des-NH2-Tyr (desamino L-Tyr); position 2 Ala; C-terminal amide; other non-coded or acylated residues as in the sequence listing
For the molecule B2, the concentration for a half-maximal effect (EC50) at GIP Receptor (cAMP luciferase reporter, HEK293) with GIP receptor [3] is 0.003 nM. It took 3.73 nM to reach a half-maximal effect in the experiment with glucagon receptor [4] (EC50 at Glucagon Receptor (cAMP luciferase reporter, HEK293)).
